Measured values taken from the supplement of paper PMC10724198.
± gives the standard deviation of the averaged measurements.

Columns and labels:
Saccharomyces cerevisiae [1] = experiment: protein stability index of tFT-peptide fusion (C-terminal peptide) (PSI (0-1 scale)); higher = more stable (slower turnover); conditions: genetic background: wild type; temperature: 30 C
Saccharomyces cerevisiae [2] = experiment: as above
Protocol: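 MPS profiling in S. cerevisiae of the tFT-X12 degron library: putative degron peptides plus stable controls, 12 aa, fused to the C-terminus of a sfGFP-mCherry timer. Cells are FACS-sorted into 8 mCherry/sfGFP bins and deep-sequenced. PSI runs from 0 (unstable) to 1 (stable). Backgrounds are wild type, das1Δ and doa10Δ at 30 °C, and wild type, das1Δ, cdc34-1 and cdc53-1 at 37 °C; 2-3 technical replicates each.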

[3] = genetic background: cdc34-1, temperature: 37 C
[4] = genetic background: cdc53-1, temperature: 37 C
[5] = genetic background: das1 deletion, temperature: 30 C
[6] = genetic background: das1 deletion, temperature: 37 C
[7] = genetic background: doa10 deletion, temperature: 30 C
[8] = genetic background: wild type, temperature: 30 C
[9] = genetic background: wild type, temperature: 37 C
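Note: PSI is a weighted mean of sequencing reads over stability bins, variants kept only with over 10 reads, mCherry proximal and sfGFP distal, peptide attached via GGGS linker.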

| Sequence | protein stability index (Saccharomyces cerevisiae [1]) | protein stability index (Saccharomyces cerevisiae [2]; [3]) | protein stability index (Saccharomyces cerevisiae [2]; [4]) | protein stability index (Saccharomyces cerevisiae [2]; [5]) | protein stability index (Saccharomyces cerevisiae [2]; [6]) | protein stability index (Saccharomyces cerevisiae [2]; [7]) | protein stability index (Saccharomyces cerevisiae [2]; [8]) | protein stability index (Saccharomyces cerevisiae [2]; [9]) |
| --- | --- | --- | --- | --- | --- | --- | --- | --- |
| GFCVRIFHGFLH | 0.351 ± 0.01 | 0.634 ± 0.0084 | 0.7 ± 0.044 | 0.649 ± 0.018 | 0.7197 ± 0.0045 | 0.215 ± 0.0082 | 0.251 ± 0.04 | 0.501 ± 0.014 |
| GFDVFWLWVVVA | 0.125 ± 0.019 | 0.0676 ± 0.024 | 0.208 ± 0.017 | 0.192 ± 0.032 | 0.307 ± 0.022 | 0.0812 ± 0.011 | 0.103 ± 0.027 | 0.0966 ± 0.015 |
| GFRMACYIRVLS | 0.296 ± 0.016 | 0.337 ± 0.015 | 0.38 ± 0.017 | 0.245 ± 0.046 | 0.445 ± 0.0051 | 0.175 ± 0.01 | 0.182 ± 0.026 | 0.286 ± 0.02 |
| GFSFVCFSPFLF | 0.42 ± 0.038 | 0.667 ± 0.041 | 0.779 ± 0.02 | 0.65 ± 0.0058 | 0.745 ± 0.011 | 0.3864 ± 0.0023 | 0.41 ± 0.02 | 0.5401 ± 0.001 |
| GFVRTVWLMCYV | 0.245 ± 0.032 | 0.286 ± 0.027 | 0.341 ± 0.017 | 0.285 ± 0.025 | 0.417 ± 0.013 | 0.129 ± 0.017 | 0.161 ± 0.012 | 0.203 ± 0.013 |
| GFWLAFLWYRES | 0.4406 ± 0.0022 | 0.386 ± 0.067 | 0.507 ± 0.021 | 0.34 ± 0.035 | 0.548 ± 0.016 | 0.222 ± 0.015 | 0.248 ± 0.036 | 0.433 ± 0.033 |
| GGAVGVRGGCRG | 0.452 ± 0.033 | 0.565 ± 0.12 | 0.7112 ± 0.0027 | 0.496 ± 0.017 | 0.635 ± 0.036 | 0.522 ± 0.05 | 0.512 ± 0.027 | 0.607 ± 0.026 |
| GGCILYFCMSIV | 0.4 ± 0.026 | 0.411 ± 0.021 | 0.492 ± 0.0065 | 0.387 ± 0.029 | 0.505 ± 0.011 | 0.371 ± 0.0097 | 0.374 ± 0.0063 | 0.472 ± 0.026 |
| GGGSRICIVRLS | 0.337 ± 0.077 | 0.654 ± 0.092 | 0.7229 ± 0.0024 | 0.636 ± 0.017 | 0.722 ± 0.0083 | 0.178 ± 0.025 | 0.197 ± 0.023 | 0.406 ± 0.03 |
| GGGVRWGVLVLG | 0.474 ± 0.011 | 0.527 ± 0.007 | 0.606 ± 0.032 | 0.4 ± 0.035 | 0.599 ± 0.013 | 0.346 ± 0.017 | 0.391 ± 0.036 | 0.553 ± 0.012 |
| GGLGIVWLWLVV | 0.378 ± 0.047 | 0.344 ± 0.021 | 0.42 ± 0.024 | 0.307 ± 0.033 | 0.4926 ± 0.0048 | 0.234 ± 0.016 | 0.282 ± 0.02 | 0.467 ± 0.016 |
| GGLRILLRLVWT | 0.454 ± 0.025 | 0.471 ± 0.052 | 0.47 ± 0.014 | 0.377 ± 0.033 | 0.488 ± 0.008 | 0.381 ± 0.011 | 0.345 ± 0.045 | 0.471 ± 0.014 |
| GGWVIVFMVGRG | 0.427 ± 0.02 | 0.523 ± 0.049 | 0.629 ± 0.084 | 0.362 ± 0.033 | 0.5982 ± 0.002 | 0.334 ± 0.0065 | 0.3607 ± 0.0035 | 0.535 ± 0.02 |
| GIALYVCFICVG | 0.245 ± 0.05 | 0.213 ± 0.0051 | 0.364 ± 0.013 | 0.253 ± 0.017 | 0.4325 ± 0.0026 | 0.137 ± 0.026 | 0.17 ± 0.015 | 0.276 ± 0.012 |
| GIIRVSSQVIVR | 0.523 ± 0.035 | 0.565 ± 0.0072 | 0.607 ± 0.018 | 0.445 ± 0.026 | 0.617 ± 0.0065 | 0.422 ± 0.012 | 0.443 ± 0.0097 | 0.5905 ± 0.0054 |
| GLCLMICVLCFV | 0.299 ± 0.0039 | 0.207 ± 0.0085 | 0.315 ± 0.023 | 0.244 ± 0.027 | 0.382 ± 0.0052 | 0.214 ± 0.00016 | 0.23 ± 0.027 | 0.337 ± 0.023 |
| GLCSFPCSSCRL | 0.756 ± 0.052 | 0.875 ± 0.023 | 0.8868 ± 0.0025 | 0.76 ± 0.018 | 0.812 ± 0.028 | 0.772 ± 0.024 | 0.772 ± 0.054 | 0.836 ± 0.021 |
| GLCVGRMFVRQI | 0.454 ± 0.011 | 0.6614 ± 0.0031 | 0.7126 ± 0.0054 | 0.661 ± 0.018 | 0.7222 ± 0.005 | 0.248 ± 0.0031 | 0.263 ± 0.026 | 0.5463 ± 0.0024 |
| GLFWWVWAGFFC | 0.436 ± 0.011 | 0.7005 ± 0.0052 | 0.7681 ± 0.0013 | 0.583 ± 0.023 | 0.8189 ± 0.0055 | 0.428 ± 0.025 | 0.421 ± 0.018 | 0.624 ± 0.056 |
| GLGFFMSFCFFL | 0.484 ± 0.036 | 0.554 ± 0.015 | 0.579 ± 0.031 | 0.477 ± 0.06 | 0.567 ± 0.011 | 0.474 ± 0.0077 | 0.4562 ± 0.0037 | 0.55817 ± 0.00049 |
| GLLAWGCVFWVV | 0.259 ± 0.014 | 0.402 ± 0.037 | 0.52 ± 0.01 | 0.336 ± 0.048 | 0.544 ± 0.01 | 0.167 ± 0.015 | 0.198 ± 0.017 | 0.3379 ± 0.00092 |
| GLLGRSRLIFYN | 0.517 ± 0.088 | 0.721 ± 0.026 | 0.8063 ± 0.0023 | 0.661 ± 0.013 | 0.788 ± 0.01 | 0.427 ± 0.0058 | 0.458 ± 0.018 | 0.666 ± 0.0092 |
| GLVAGVYVGSGL | 0.701 ± 0.02 | 0.7099 ± 0.0059 | 0.759 ± 0.011 | 0.629 ± 0.036 | 0.741 ± 0.0076 | 0.648 ± 0.031 | 0.616 ± 0.013 | 0.721 ± 0.01 |
| GMCRVELIATCG | 0.307 ± 0.031 | 0.368 ± 0.039 | 0.409 ± 0.018 | 0.276 ± 0.036 | 0.453 ± 0.011 | 0.229 ± 0.0046 | 0.28 ± 0.026 | 0.4381 ± 0.0011 |
| GMGYISVVVWSH | 0.208 ± 0.0092 | 0.0293 ± 0.0072 | 0.1 ± 0.029 | 0.141 ± 0.046 | 0.2283 ± 0.00048 | 0.104 ± 0.015 | 0.114 ± 0.017 | 0.155 ± 0.017 |
| GQLKGKDETEKK | 0.191 ± 0.021 | 0.7023 ± 0.005 | 0.749 ± 0.027 | 0.616 ± 0.023 | 0.769 ± 0.029 | 0.645 ± 0.027 | 0.655 ± 0.051 | 0.691 ± 0.0094 |
| GRHRRYLLLPVH | 0.419 ± 0.015 | 0.487 ± 0.029 | 0.5232 ± 0.0027 | 0.369 ± 0.028 | 0.541 ± 0.0057 | 0.308 ± 0.0055 | 0.35 ± 0.019 | 0.485 ± 0.013 |
| GRSVLIGLIVRC | 0.4701 ± 0.0034 | 0.417 ± 0.015 | 0.433 ± 0.014 | 0.332 ± 0.048 | 0.53715 ± 0.00026 | 0.437 ± 0.023 | 0.349 ± 0.022 | 0.479 ± 0.0083 |
| GTLSSSLIKSCA | 0.52 ± 0.057 | 0.602 ± 0.036 | 0.616 ± 0.017 | 0.488 ± 0.027 | 0.637 ± 0.013 | 0.481 ± 0.01 | 0.499 ± 0.029 | 0.614 ± 0.0095 |
| GTVRGDLSLWLC | 0.349 ± 0.11 | 0.622 ± 0.047 | 0.745 ± 0.0076 | 0.681 ± 0.0076 | 0.765 ± 0.015 | 0.156 ± 0.012 | 0.17 ± 0.031 | 0.274 ± 0.023 |
